Test [1] deals with T1, PIN149 fully human Id protein (HV3-23 / KV4-1) (human).
T1 construct: Recombinant patient-derived idiotype immunoglobulin used as antigen; also called PIN149 Id protein; Immunogen (for 3C9, 6C9, 10H7, 15E1); not shown: human immunoglobulin heavy chain constant region, isotype G3 (HCG3); human immunoglobulin kappa light chain constant region (KC)
The test can be described thus: SPR (BIACORE 2000); mAb captured on anti-mouse surface, fully human Id protein as analyte. As for the experimental part:
(§1) Binding constants were also determined for three of the sequenced clones (3C9, 10H7, and 20H5), as well as for two additional clones (6C9 and 15E1). The association and disassociation rates were measured by surface plasmon resonance using a BIACORE 2000 machine.
(§2) In addition, based on ELISA results, PIN185 was used as a positive control Id protein for 10H7 and 15E1 and a negative control Id protein for 3C9 and 6C9 and PIN149 was used as a non-binding Id protein for 20H5. Each mAb was captured onto an anti-mouse surface and tested for binding to the fully human Id protein. Following the mAb capture phase of the assay for the (@2 ug/ml), the fully human Id proteins were all diluted to a starting concentration of 250 nM and tested in a three fold dilution series. Each concentration was tested in duplicate. The running buffer contained PBS plus 0.005% tween-20 and 0.1 mg/ml BSA as a carrier. Binding data were collected at 25° C. […] The other data sets all fit well to a single site interaction model.
Background: SPR reads the build-up and loss of mass on a sensor chip optically.

Test [2] deals with T2, PIN574 fully human Id protein (HV4-39 / LV1-40) (human).
T2 construct: Recombinant patient-derived idiotype immunoglobulin used as antigen, fully human form; also called Immunogen (for 20H5); not shown: human immunoglobulin heavy chain constant region, isotype G3 (HCG3); human immunoglobulin lambda light chain constant region (LC)
The test can be described thus: SPR (BIACORE 2000); mAb captured on anti-mouse surface, fully human Id protein as analyte, 25 C. As for the experimental part:
as §1, §2

The next test concerns the target T3, 559.
T3 construct: H3-15 L2-23; also called PIN559
The test can be described thus: ELISA. Details: key to grade: 0 = <0.5 OD, 1 = 0.5-1.0 OD, 4 = 1-4 OD. From the text:
(§3) Before specificity screening, all of the clonal immunogen-positive hybridoma supernatants were re-screened on the immunogen, a non-family member Id protein, and KLH, if animals were immunized with Id protein that has been conjugated KLH. As described above, this screen identifies HC-specific clones but not mAbs against the light chain constant region. Clones identified positive to the immunogen and KLH were […]. Those found positive to the immunogen but not to the non-family member Id protein or KLH were tittered on the immunogen. In addition to normalizing for different binding affinities and concentrations, each hybridoma supernatant was titered on the fully human form of the Id protein used as the immunogen(s) for the V regions. The titer or dilution resulting in an ELISA absorbance of 2.5 to 3 OD after 30 min. incubation time was then used. Hybridoma specificity was determined by screening against available Id proteins expressing the same HV and KV or LV as well as different HV, KV and LV. The final ELISA results are expressed as follows: 0 (<0.5 OD), 1 (0.5-1.0 OD), or 4 (1-4 OD). Positive hybridoma supernatants are categorized according to specificity: anti-Id, anti-constant region (HC, KC or LC), or V region (HV, KV, LV family or family member).
(§4) In general, the fully human Id protein or proteins containing the immunogen V regions were coated onto 96-well ELISA plates at 2.5-5 ug/mL in carbonate buffer pH 9.6 and incubated at 4° C. for up to 14 days. On the day of the ELISA, plates were brought to RT and blocked with Tris-Tween-20, pH 7.6 for 15-60 min. at RT. Following a NaCl and Triton X-100 wash, diluted hybridoma cell culture supernatants were incubated overnight at 4° C. Hybridoma supernatant dilutions ranged from 1:2 to 1:25 and were prepared in PBS with 5% BSA. Plates were washed and incubated with HRP-conjugated goat anti-mouse IgG-specific detecting antibody. A chromogenic substrate (TMB) was used to measure the amount of mouse antibody bound to each well. The reaction was stopped at or before 30 minutes with IN H2SO4 and plates were read immediately. Absorbency readings at 450 nm ranging between 0-4 OD and using Molecular Devices plate reader and SOFTMAX PRO software.
On the technique in general: An ELISA detects its analyte on a solid surface through an enzyme-linked reagent.

The next test concerns the target T4, 604.
T4 construct: H4-34 L2-8; also called PIN604
The test can be described thus: ELISA. Details: key to grade: 0 = <0.5 OD, 1 = 0.5-1.0 OD, 4 = 1-4 OD.
From the text: as §3, §4

Another test has as its target T5, 662.
T5 construct: fully human Id protein; also called PIN662
Put plainly: ELISA. Details: key to grade: 0 = <0.5 OD, 1 = 0.5-1.0 OD, 4 = 1-4 OD.
From the text: as §3, §4

A further test concerns the target T6, 787.
T6 construct: also called PIN787
The test can be described thus: ELISA. Details: key to grade: 0 = <0.5 OD, 1 = 0.5-1.0 OD, 4 = 1-4 OD.
From the text: as §3, §4

The target in a further test is T7, 746.
T7 construct: H4-39 L2-8; also called PIN746
The test can be described thus: ELISA. Details: key to grade: 0 = <0.5 OD, 1 = 0.5-1.0 OD, 4 = 1-4 OD.
From the text: as §3, §4

The target in a further test is T8, 710.
T8 construct: H1-8 L2-8; also called PIN710
Put plainly: ELISA. Details: key to grade: 0 = <0.5 OD, 1 = 0.5-1.0 OD, 4 = 1-4 OD.
From the text: as §3, §4

Test [3] concerns the target T2, PIN574 fully human Id protein (HV4-39 / …). The test can be described thus: ELISA. Details: key to grade: 0 = <0.5 OD, 1 = 0.5-1.0 OD, 4 = 1-4 OD.
From the text: as §3, §4

In a further test the target is T9, 116.
T9 construct: fully human Id protein; also called PIN116
The test can be described thus: ELISA. Details: key to grade: 0 = <0.5 OD, 1 = 0.5-1.0 OD, 4 = 1-4 OD.
From the text: as §3, §4

The target of the next test is T10, 625.
T10 construct: H4-61 L2-8; also called PIN625
Put plainly: ELISA. Details: key to grade: 0 = <0.5 OD, 1 = 0.5-1.0 OD, 4 = 1-4 OD.
From the text: as §3, §4

The target in a further test is T11, 552.
T11 construct: H1-18 L2-8; also called PIN552
The test can be described thus: ELISA. Details: key to grade: 0 = <0.5 OD, 1 = 0.5-1.0 OD, 4 = 1-4 OD.
From the text: as §3, §4

The target in a further test is T12, 647.
T12 construct: fully human Id protein; also called PIN647
Put plainly: ELISA. Details: key to grade: 0 = <0.5 OD, 1 = 0.5-1.0 OD, 4 = 1-4 OD.
From the text: as §3, §4

T2 sequence (VH, as listed by the source, chain 1 of 2): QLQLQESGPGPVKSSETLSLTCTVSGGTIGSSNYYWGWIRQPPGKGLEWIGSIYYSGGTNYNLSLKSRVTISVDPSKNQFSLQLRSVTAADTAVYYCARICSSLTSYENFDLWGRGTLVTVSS
T2 sequence (VL, as listed by the source, chain 2 of 2): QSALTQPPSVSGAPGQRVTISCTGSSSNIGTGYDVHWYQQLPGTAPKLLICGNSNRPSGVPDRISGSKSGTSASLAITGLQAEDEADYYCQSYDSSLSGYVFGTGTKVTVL
T5 sequence (heavy, as listed by the source): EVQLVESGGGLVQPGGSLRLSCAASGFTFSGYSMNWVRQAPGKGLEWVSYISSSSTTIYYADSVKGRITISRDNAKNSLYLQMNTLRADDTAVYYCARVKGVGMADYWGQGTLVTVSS
T9 sequence (VH, as listed by the source, chain 1 of 2): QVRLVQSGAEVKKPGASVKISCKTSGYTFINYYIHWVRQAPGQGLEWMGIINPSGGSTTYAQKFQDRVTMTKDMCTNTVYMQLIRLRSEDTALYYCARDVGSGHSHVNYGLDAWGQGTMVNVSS
T9 sequence (V domain, as listed by the source, chain 2 of 2): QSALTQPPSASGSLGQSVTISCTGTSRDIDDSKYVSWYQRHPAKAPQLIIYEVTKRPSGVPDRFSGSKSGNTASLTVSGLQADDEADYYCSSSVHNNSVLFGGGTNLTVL
T1 sequence (VH, as listed by the source, chain 1 of 2): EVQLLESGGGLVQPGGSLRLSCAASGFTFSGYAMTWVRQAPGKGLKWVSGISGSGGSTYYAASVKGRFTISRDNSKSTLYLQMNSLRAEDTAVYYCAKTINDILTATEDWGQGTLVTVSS
T1 sequence (VL, as listed by the source, chain 2 of 2): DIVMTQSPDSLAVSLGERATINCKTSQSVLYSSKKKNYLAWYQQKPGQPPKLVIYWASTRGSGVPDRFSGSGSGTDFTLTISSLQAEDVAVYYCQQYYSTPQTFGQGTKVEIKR
T12 sequence (VH, as listed by the source, chain 1 of 2): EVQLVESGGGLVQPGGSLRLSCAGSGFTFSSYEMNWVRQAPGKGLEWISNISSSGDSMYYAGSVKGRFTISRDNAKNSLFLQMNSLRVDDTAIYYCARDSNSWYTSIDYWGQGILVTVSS
T12 sequence (VL, as listed by the source, chain 2 of 2): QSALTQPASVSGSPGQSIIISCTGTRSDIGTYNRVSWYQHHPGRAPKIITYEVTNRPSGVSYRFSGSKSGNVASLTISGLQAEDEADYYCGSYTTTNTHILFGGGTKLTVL

B1: mAb clone 20H5 (antibody, V domains shown)
VH: QVQLKESGPDLVAPSQSLSITCTVSGFSLTSYGVHWVRQPPGKGLEWLVVIWSDGSTTNNSPLKSRLSISKDNSKSQVFLKMNSLQTDDTAMYYCARHWGTTVVDAMDYWGQGTSVTVSS
VL: DIQMTQTTSSLSASLGDRVIISCRASQDIRNYLNWYQQKPDGTVKLLIYYTSQLHSGVPSRFSGSGSGTDYSLTINNLSEQEDIATYFCQQYDTLPWTFGGGTKLEIKR
notes: Mouse hybridoma mAb, fusion 10 (immunogen fully human PIN574 Id protein)
As for B1, the binding result in test [1] is listed as “no binding”. For the same molecule, in test [2], the equilibrium dissociation constant (Kd) (commonly the free concentration of one partner at which half of the binding sites on the other are occupied at equilibrium, for simple one-to-one binding) is 1.92 nM; the koff (in general, the rate constant with which the complex falls apart) came to 0.000146 s⁻¹; the kon (commonly a measure of how fast the partners come together) amounted to 75900 M⁻¹ s⁻¹.

B2: mAb clone 15E8 (antibody, V domains shown)
VH: QVQLQQPGAELVMPGASVKMSCKASGYTFTDYWMHWVKQRPGQGLEWIGTIDTSDSYTNYNQKFKGKATLTVDESSSTAYMQLSSLTSEDSAVYYCVRWKKYGNYFFDYWGQGTTLTVSS
VL: DIVMTQSHKFMSTSVGDRVSITCKASQDVNTAVAWYQQKPGQSPKLLIYWASTRHTGVPDRFTGSGSGTDFSLTISSVQAEDLGLYYCQQCYSTPYAFGGGTKLEIKR
notes: Mouse hybridoma mAb, fusion 16 (immunogen PIN116)
As for B2, the grade was 4 in the test with 559; 4 in the test with 604; 4 in the test with 662; 1 with 787; 4 with 746; 4 with 710. In addition, the grade with 116, with 625 and with 552 was 4 each time. In addition, the binding result (in test [3]; with 647) was “no binding” throughout.
